From IntAct's records for PubMed 16339905

B1: X-linked retinitis pigmentosa GTPase regulator-interacting protein 1 (Homo sapiens), Q96KN7-1 (parent)
chain: MSHLVDPTSGDLPVRDIDAIPLVLPASKGKNMKTQPPLSRMNREELEDSFFRLREDHMLVKELSWKQQDEIKRLRTTLLRLTAAGRDLRVAEEAAPLSETARRGQKAGWRQRLSMHQRPQMHRLQGHFHCVGPASPRRAQPRVQVGHRQLHTAGAPVPEKPKRGPRDRLSYTAPPSFKEHATNENRGEVASKPSELVSGSNSIISFSSVISMAKPIGLCMPNSAHIMASNTMQVEEPPKSPEKMWPKDENFEQRSSLECAQKAAELRASIKEKVELIRLKKLLHERNASLVMTKAQLTEVQEAYETLLQKNQGILSAAHEALLKQVNELRAELKEESKKAVSLKSQLEDVSILQMTLKEFQERVEDLEKERKLLNDNYDKLLESMLDSSDSSSQPHWSNELIAEQLQQQVSQLQDQLDAELEDKRKVLLELSREKAQNEDLKLEVTNILQKHKQEVELLQNAATISQPPDRQSEPATHPAVLQENTQIEPSEPKNQEEKKLSQVLNELQVSHAETTLELEKTRDMLILQRKINVCYQEELEAMMTKADNDNRDHKEKLERLTRLLDLKNNRIKQLEGILRSHDLPTSEQLKDVAYGTRPLSLCLETLPAHGDEDKVDISLLHQGENLFELHIHQAFLTSAALAQAGDTQPTTFCTYSFYDFETHCTPLSVGPQPLYDFTSQYVMETDSLFLHYLQEASARLDIHQAMASEHSTLAAGWICFDRVLETVEKVHGLATLIGAGGEEFGVLEYWMRLRFPIKPSLQACNKRKKAQVYLSTDVLGGRKAQEEEFRSESWEPQNELWIEITKCCGLRSRWLGTQPSPYAVYRFFTFSDHDTAIIPASNNPYFRDQARFPVLVTSDLDHYLRREALSIHVFDDEDLEPGSYLGRARVPLLPLAKNESIKGDFNLTDPAEKPNGSIQVQLDWKFPYIPPESFLKPEAQTKGKDTKDSSKISSEEEKASFPSQDQMASPEVPIEAGQYRSKRKPPHGGERKEKEHQVVSYSRRKHGKRIGVQGKNRMEYLSLNILNGNTPEQVNYTEWKFSETNSFIGDGFKNQHEEEEMTLSHSALKQKEPLHPVNDKESSEQGSEVSEAQTTDSDDVIVPPMSQKYPKADSEKMCIEIVSLAFYPEAEVMSDENIKQVYVEYKFYDLPLSETETPVSLRKPRAGEEIHFHFSKVIDLDPQEQQGRRRFLFDMLNGQDPDQGHLKFTVVSDPLDEEKKECEEVGYAYLQLWQILESGRDILEQELDIVSPEDLATPIGRLKVSLQAAAVLHAIYKEMTEDLFS
partner: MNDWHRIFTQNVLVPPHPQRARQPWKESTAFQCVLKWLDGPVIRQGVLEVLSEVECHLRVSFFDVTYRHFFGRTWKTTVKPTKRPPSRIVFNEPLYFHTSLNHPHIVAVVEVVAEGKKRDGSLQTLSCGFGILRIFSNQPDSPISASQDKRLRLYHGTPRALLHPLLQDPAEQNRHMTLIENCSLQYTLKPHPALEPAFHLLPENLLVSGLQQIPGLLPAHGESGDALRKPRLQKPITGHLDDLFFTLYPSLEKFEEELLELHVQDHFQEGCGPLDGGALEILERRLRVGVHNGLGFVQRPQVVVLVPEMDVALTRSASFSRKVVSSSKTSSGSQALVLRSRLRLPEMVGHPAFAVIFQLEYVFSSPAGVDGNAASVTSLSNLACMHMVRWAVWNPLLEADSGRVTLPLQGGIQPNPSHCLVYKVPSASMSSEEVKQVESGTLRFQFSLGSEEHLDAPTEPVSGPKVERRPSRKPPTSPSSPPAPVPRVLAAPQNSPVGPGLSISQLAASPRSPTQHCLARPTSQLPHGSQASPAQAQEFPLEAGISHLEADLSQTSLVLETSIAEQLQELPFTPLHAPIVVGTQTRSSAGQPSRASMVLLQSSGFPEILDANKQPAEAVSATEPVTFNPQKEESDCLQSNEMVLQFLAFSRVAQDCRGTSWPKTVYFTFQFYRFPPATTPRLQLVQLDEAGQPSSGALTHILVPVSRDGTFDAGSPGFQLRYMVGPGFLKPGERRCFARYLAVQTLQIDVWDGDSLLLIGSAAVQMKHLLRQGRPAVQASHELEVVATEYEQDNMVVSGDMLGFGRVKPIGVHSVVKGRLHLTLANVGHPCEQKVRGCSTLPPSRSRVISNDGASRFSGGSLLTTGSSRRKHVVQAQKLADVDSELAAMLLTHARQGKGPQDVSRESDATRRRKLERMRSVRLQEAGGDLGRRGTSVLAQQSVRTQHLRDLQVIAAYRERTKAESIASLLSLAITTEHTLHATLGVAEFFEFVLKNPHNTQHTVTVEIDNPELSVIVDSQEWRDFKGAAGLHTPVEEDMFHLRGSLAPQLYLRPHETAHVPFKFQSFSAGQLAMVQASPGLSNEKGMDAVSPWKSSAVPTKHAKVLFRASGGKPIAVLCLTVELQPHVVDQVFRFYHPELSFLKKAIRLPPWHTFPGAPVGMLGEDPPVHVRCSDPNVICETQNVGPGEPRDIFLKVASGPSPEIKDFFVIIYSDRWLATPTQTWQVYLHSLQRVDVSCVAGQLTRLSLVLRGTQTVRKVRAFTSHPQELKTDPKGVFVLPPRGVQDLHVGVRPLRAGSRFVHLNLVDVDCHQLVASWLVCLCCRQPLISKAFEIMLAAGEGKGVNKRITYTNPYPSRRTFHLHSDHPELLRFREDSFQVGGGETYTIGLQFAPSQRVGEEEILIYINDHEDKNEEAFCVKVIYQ
B2: Nephrocystin-4 (Homo sapiens), O75161-1 (parent)
chain: B1 partner
partner: B1 chain

Variants of: B1
Settings: with NPHP4, O75161-1

Row | effect of a mutation on the interaction | Variant
1 | disrupting interaction | D876G
2 | disrupting interaction | G746E
3 | with no effect | R852Q

Variants of: B1
Settings: with NPHP4, O75161-1
Remark: another data set of the same source

Row | effect of a mutation on the interaction | Variant
4 | decreasing interaction | D876G

Variants of: B2
Settings: with RPGRIP1, Q96KN7-1

Row | effect of a mutation on the interaction | Variant
5 | disrupting interaction | G754R
